Here are results for 30 molecules from patent publication US20200095340A1.

B1: anti-DLL3 trispecific protein 4C01 (protein, part only; not given: anti-CD3 fragment and anti-albumin sdAb, part only)
chain, part: EVQLVESGGGLVQPGGSLTLSCAASGSSVRFLSMAWYRQAPGKKRELVAGISADGSTVYIDSVKGRFTISRDNAKNSVYLQMNSLRAEDTAVYYCYAYRWKTRYTYWGQGTLVTVSSGGGGSGGGSGGGGSGGGSHHHHHH
B2: anti-DLL3 trispecific protein 4A011 (protein, part only; not given: CD3 binder and albumin binder, part only)
chain, part: EVQLVESGGGLVQPGGSLTLSCAASGSKVSFLSMAWYRQAPGKKRELVAGISADGSTTYIDSVKGRFTISRDNAKNSVYLQMNSLRAEDTAVYYCYAYRWKTRYTYWGQGTLVTVSSGGGGSGGGSGGGGSGGGSHHHHHH
B3: anti-DLL3 trispecific protein 3C08 (protein, part only; not given: anti-CD3 fragment and anti-albumin sdAb, part only)
chain, part: EVQLVESGGGLVQPGGSLTLSCAASGSSVKFLSMAWYRQAPGKKRELVAGISLDGSTDYIDSVKGRFTISRDNAKNSVYLQMNSLRAEDTAVYYCYAYRWTGRYTYWGQGTLVTVSSGGGGSGGGSGGGGSGGGSHHHHHH
B4: anti-DLL3 trispecific protein 4F010 (protein, part only; not given: anti-CD3 and anti-albumin domains, part only)
chain, part: EVQLVESGGGLVQPGGSLTLSCAASGSSVSFLSMAWYRQAPGKKRELVAGISIDGSTDYIKSVKGRFTISRDNAKNSVYLQMNSLRAEDTAVYYCYAYRWTTRYRYWGQGTLVTVSSGGGGSGGGSGGGGSGGGSHHHHHH
B5: anti-DLL3 trispecific protein 4D08 (protein, part only; not given: anti-CD3 and anti-albumin domains, part only)
chain, part: EVQLVESGGGLVQPGGSLTLSCAASGSSVNFLSMAWYRQAPGKKRELVAGISADGSTHYIDSVKGRFTISRDNAKNSVYLQMNSLRAEDTAVYYCYAYRWLTRYTYWGQGTLVTVSSGGGGSGGGSGGGGSGGGSHHHHHH
B6: anti-DLL3 trispecific protein 4D011 (protein, part only; not given: anti-CD3 fragment and anti-albumin sdAb, part only)
chain, part: EVQLVESGGGLVQPGGSLTLSCAASGSSVRFLSMAWYRQAPGKKRELVAGISVDGSTDYIDSVKGRFTISRDNAKNSVYLQMNSLRAEDTAVYYCYAYRWRTRYTYWGQGTLVTVSSGGGGSGGGSGGGGSGGGSHHHHHH
B7: anti-DLL3 trispecific protein 3D011 (protein, part only; not given: CD3 binder and albumin binder, part only)
chain, part: EVQLVESGGGLVQPGGSLTLSCAASGSSVSRLSMAWYRQAPGKKRELVAGISADGSRDYIDSVKGRFTISRDNAKNSVYLQMNSLRAEDTAVYYCYAYRWTTRYKYWGQGTLVTVSSGGGGSGGGSGGGGSGGGSHHHHHH
B8: anti-DLL3 trispecific protein 4B09 (protein, part only; not given: anti-CD3 fragment and anti-albumin sdAb, part only)
chain, part: EVQLVESGGGLVQPGGSLTLSCAASGSSVSFLSMAWYRQAPGKKRELVAGISADGSTDYISSVKGRFTISRDNAKNSVYLQMNSLRAEDTAVYYCYAYSWTTRYTYWGQGTLVTVSSGGGGSGGGSGGGGSGGGSHHHHHH
B9: anti-DLL3 trispecific protein 1F011 (protein, part only; not given: anti-CD3 fragment and anti-albumin sdAb, part only)
chain, part: EVQLVESGGGLVQPGGSLTLSCVASGSTSSINAIGWYRRAPGKQRELVAGISSDGSKVYADSVKGRFTISRDNAKNSVYLQMNSLRAEDTAVYYCYYFRTVKGSSMRYWGQGTLVTVSSGGGGSGGGSGGGGSGGGSHHHHHH
B10: anti-DLL3 trispecific protein 2G03 (protein, part only; not given: CD3 binder and albumin binder, part only)
chain, part: EVQLVESGGGLVQPGGSLTLSCVASGSTSSINAMGWYRRAPGKQRELVAGISSDGSLVYADSVKGRFTISRDNAKNSVYLQMNSLRAEDTAVYYCYYFRTVSGSSMRAWGQGTLVTVSSGGGGSGGGSGGGGSGGGSHHHHHH
B11: anti-DLL3 trispecific protein 1E010 (protein, part only; not given: anti-CD3 fragment and anti-albumin sdAb, part only)
chain, part: EVQLVESGGGLVQPGGSLTLSCVASGSVSSINAMGWYRRAPGKQRELVAGISSDGSKVYIDSVKGRFTISRDNAKNSVYLQMNSLRAEDTAVYYCYYFRTVSGLSMRYWGQGTLVTVSSGGGGSGGGSGGGGSGGGSHHHHHH
B12: anti-DLL3 trispecific protein 2D011 (protein, part only; not given: anti-CD3 fragment and anti-albumin sdAb, part only)
chain, part: EVQLVESGGGLVQPGGSLTLSCVASGTTSSINAMGWYRRAPGKQRELVAGISSDGSKVYADSVKGRFTISRDNAKNSVYLQMNSLRAEDTAVYYCYYFRTVWGSSMRYWGQGTLVTVSSGGGGSGGGSGGGGSGGGSHHHHHH
B13: anti-DLL3 trispecific protein 1D01 (protein, part only; not given: CD3 binder and albumin binder, part only)
chain, part: EVQLVESGGGLVQPGGSLTLSCVASGSTSDINAMGWYRRAPGKQRELVAGISSDKSKVYADSVKGRFTISRDNAKNSVYLQMNSLRAEDTAVYYCYYFRTVRGSSMRYWGQGTLVTVSSGGGGSGGGSGGGGSGGGSHHHHHH
B14: anti-DLL3 trispecific protein 1E012 (protein, part only; not given: CD3 binder and albumin binder, part only)
chain, part: EVQLVESGGGLVQPGGSLTLSCVASGSTSSTNAMGWYRRAPGKQRELVAGISSDGSKVYVDSVKGRFTISRDNAKNSVYLQMNSLRAEDTAVYYCYYFRTVSGSSMVYWGQGTLVTVSSGGGGSGGGSGGGGSGGGSHHHHHH
B15: anti-DLL3 trispecific protein 2B07 (protein, part only; not given: CD3 fragment and albumin sdAb, part only)
chain, part: EVQLVESGGGLVQPGGSLTLSCVASGSTSSINAFGWYRRAPGKQRELVAGISSDGSKVYADSVKGRFTISRDNAKNSVYLQMNSLRAEDTAVYYCYYFRTVRGSSMRYWGQGTLVTVSSGGGGSGGGSGGGGSGGGSHHHHHH
B16: anti-DLL3 trispecific protein 1H01 (protein, part only; not given: CD3 binder and albumin binder, part only)
chain, part: EVQLVESGGGLVQPGGSLTLSCVASGSTSSINAMAWYRRAPGKQRELAAGISSDNSKVYADSVKGRFTISRDNAKNSVYLQMNSLRAEDTAVYYCYYFRTRSGSSMRYWGQGTLVTVSSGGGGSGGGSGGGGSGGGSHHHHHH
B17: anti-DLL3 trispecific protein 2H011 (protein, part only; not given: anti-CD3 fragment and anti-albumin domain, part only)
chain, part: EVQLVESGGGLVQPGGSLTLSCVASGSTSRINAMGWYRRAPGKQRELVAGISSDGSKVYADSVKGRFTISRDNAKNSVYLQMNSLRAEDTAVYYCYYFRRVSGSSMRYWGQGTLVTVSSGGGGSGGGSGGGGSGGGSHHHHHH
B18: anti-DLL3 trispecific protein 1F05 (protein, part only; not given: CD3 fragment and albumin sdAb, part only)
chain, part: EVQLVESGGGLVQPGGSLTLSCVASGSTRSINAMGWYRRAPGKQRELVAGISSDGSKVYADSVKGRFTISRDNAKNSVYLQMNSLRAEDTAVYYCYYFHTVSGSSMRYWGQGTLVTVSSGGGGSGGGSGGGGSGGGSHHHHHH
B19: anti-DLL3 trispecific protein 1D03 (protein, part only; not given: CD3 binder and albumin binder, part only)
chain, part: EVQLVESGGGLVQPGGSLTLSCVASGSTSSINAIGWYRRAPGKQRELVAGISSDGSKVLADSVKGRFTISRDNAKNSVYLQMNSLRAEDTAVYYCYYFRIVSGSSMGYWGQGTLVTVSSGGGGSGGGSGGGGSGGGSHHHHHH
B20: anti-DLL3 trispecific protein 1D010 (protein, part only; not given: anti-CD3 and anti-albumin domains, part only)
chain, part: EVQLVESGGGLVQPGGSLTLSCVASGSTSSNNAMAWYRRAPGKQRELVAGISSDGSKVYTDSVKGRFTISRDNAKNSVYLQMNSLRAEDTAVYYCYYFRTRSGSSMRYWGQGTLVTVSSGGGGSGGGSGGGGSGGGSHHHHHH
B21: anti-DLL3 trispecific protein 1A06 (protein, part only; not given: anti-CD3 fragment and anti-albumin sdAb, part only)
chain, part: EVQLVESGGGLVQPGGSLTLSCVASGSTSSINAMGWYRRAPGKQRELAAGISSDGSSVYADSVKGRFTISRDNAKNSVYLQMNSLRAEDTAVYYCYYFRTVSGSSKRYWGQGTLVTVSSGGGGSGGGSGGGGSGGGSHHHHHH
B22: anti-DLL3 trispecific protein 2A04 (protein, part only; not given: anti-CD3 fragment and anti-albumin domain, part only)
chain, part: EVQLVESGGGLVQPGGSLTLSCVASGSTSSINAMAWYRRAPGKQRELVAGISSDGSKVYTDSVKGRFTISRDNAKNSVYLQMNSLRAEDTAVYYCYYFRTTSGSSMRYWGQGTLVTVSSGGGGSGGGSGGGGSGGGSHHHHHH
B23: anti-DLL3 trispecific protein 1B011 (protein, part only; not given: CD3 binder and albumin binder, part only)
chain, part: EVQLVESGGGLVQPGGSLTLSCVASGSTSRINAMGWYRRAPGKQRELVAGISSDGSKVYADSVKGRFTISRDNAKNSVYLQMNSLRAEDTAVYYCYYFRTVYGSSMRYWGQGTLVTVSSGGGGSGGGSGGGGSGGGSHHHHHH
B24: anti-DLL3 trispecific protein 1B09 (protein, part only; not given: anti-CD3 and anti-albumin domains, part only)
chain, part: EVQLVESGGGLVQPGGSLTLSCVASGSTSSINAMAWYRRAPGKQRELVAGISSDGSKVYVDSVKGRFTISRDNAKNSVYLQMNSLRAEDTAVYYCYYFRTVSGSSMRYWGQGTLVTVSSGGGGSGGGSGGGGSGGGSHHHHHH
B25: anti-DLL3 trispecific protein 1C05 (protein, part only; not given: CD3 binder and albumin binder, part only)
chain, part: EVQLVESGGGLVQPGGSLTLSCVASGSTSSINAMAWYRRAPGKQRELVAGISSDGSKVYADSVKGRFTISRDNAKNSVYLQMNSLRAEDTAVYYCYYFRTVSGSHMRYWGQGTLVTVSSGGGGSGGGSGGGGSGGGSHHHHHH
B26: anti-DLL3 trispecific protein 2H03 (protein, part only; not given: CD3 binder and albumin binder, part only)
chain, part: EVQLVESGGGLVQPGGSLTLSCVASGSTSSINAMAWYRRAPGKQRELVAGISSDGSKVYADSVKGRFTISRDNAKNSVYLQMNSLRAEDTAVYYCYYFRQVSGSSMRYWGQGTLVTVSSGGGGSGGGSGGGGSGGGSHHHHHH
B27: anti-DLL3 trispecific protein 1D09 (protein, part only; not given: anti-CD3 and anti-albumin domains, part only)
chain, part: EVQLVESGGGLVQPGGSLTLSCVASGSTSSINAMAWYRRAPGKQRELVAGISSDGSKVYTDSVKGRFTISRDNAKNSVYLQMNSLRAEDTAVYYCYYFRTISGSSMRYWGQGTLVTVSSGGGGSGGGSGGGGSGGGSHHHHHH
B28: anti-DLL3 trispecific protein 1F012 (protein, part only; not given: anti-CD3 fragment and anti-albumin sdAb, part only)
chain, part: EVQLVESGGGLVQPGGSLTLSCVASGLTSSINAMGWYRRAPGKQRELVAGISSDGSKVYQDSVKGRFTISRDNAKNSVYLQMNSLRAEDTAVYYCYYFRTNSGSSMRYWGQGTLVTVSSGGGGSGGGSGGGGSGGGSHHHHHH
B29: anti-DLL3 trispecific protein 1B01 (protein, part only; not given: anti-CD3 fragment and anti-albumin sdAb, part only)
chain, part: EVQLVESGGGLVQPGGSLTLSCVASGSTSIINAMGWYRRAPGKQRELAAGISSDGSKVIADSVKGRFTISRDNAKNSVYLQMNSLRAEDTAVYYCYYFRRVSGSSMRYWGQGTLVTVSSGGGGSGGGSGGGGSGGGSHHHHHH
B30: anti-DLL3 trispecific protein 2F03 (protein, part only; not given: anti-CD3 fragment and anti-albumin sdAb, part only)
chain, part: EVQLVESGGGLVQPGGSLTLSCVASGSTSSINAMAWYRRAPGKQRELAAGISSDNSKVYADSVKGRFTISRDNAKNSVYLQMNSLRAEDTAVYYCYYFRTVGGSSMRYWGQGTLVTVSSGGGGSGGGSGGGGSGGGSHHHHHH

Chain of biotinylated human DLL3 protein expressed as a human IgG1 fusion protein (human) (Q9NYJ7 other isoform, or with tags, fused parts or gaps): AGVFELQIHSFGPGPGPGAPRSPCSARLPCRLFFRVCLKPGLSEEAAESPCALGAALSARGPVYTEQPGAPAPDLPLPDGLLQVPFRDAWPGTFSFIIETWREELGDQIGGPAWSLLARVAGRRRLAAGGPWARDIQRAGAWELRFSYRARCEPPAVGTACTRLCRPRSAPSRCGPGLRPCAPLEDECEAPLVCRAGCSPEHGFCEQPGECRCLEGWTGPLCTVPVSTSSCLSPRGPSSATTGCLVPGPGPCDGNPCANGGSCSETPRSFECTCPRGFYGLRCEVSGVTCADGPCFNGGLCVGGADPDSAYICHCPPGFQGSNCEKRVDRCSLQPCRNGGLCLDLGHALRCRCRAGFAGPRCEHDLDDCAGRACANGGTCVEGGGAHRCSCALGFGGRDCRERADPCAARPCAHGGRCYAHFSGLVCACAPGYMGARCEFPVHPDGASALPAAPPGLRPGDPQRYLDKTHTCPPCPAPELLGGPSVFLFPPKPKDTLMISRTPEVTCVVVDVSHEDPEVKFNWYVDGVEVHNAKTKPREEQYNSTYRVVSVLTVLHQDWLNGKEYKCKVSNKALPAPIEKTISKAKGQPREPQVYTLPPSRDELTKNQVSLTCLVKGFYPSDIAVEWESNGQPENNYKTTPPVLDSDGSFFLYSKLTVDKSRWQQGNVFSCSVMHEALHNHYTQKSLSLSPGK

The experiment concerns the target biotinylated human DLL3 protein expressed as a human IgG1 fusion protein (human) (UniProt Q9NYJ7). In words: Octet BLI; biotinylated huDLL3-IgG1 fusion on streptavidin tips; single 50 nM; conditioned medium. (In general: In BLI a coated tip is dipped into the sample, and binding shifts an interference pattern.)
Turning to B1, the Kd (as a rule, the free concentration of one partner at which half of the binding sites on the other are occupied at equilibrium, for simple one-to-one binding) was 5.1 nM.

In the case of B2, the Kd worked out at 5.6 nM.

In turn, B3 came in with a Kd of 5.9 nM.

Consider B4, for which the Kd was 5.8 nM.

As to B5, the Kd was 5.9 nM.

B6 returned a dissociation constant (Kd) of 5.8 nM.

As for B7, the Kd amounted to 5.3 nM.

For the molecule B8, the Kd is 5.4 nM.

Molecule B9 gave a Kd of 5 nM.

Molecule B10 came in with a Kd of 5.6 nM.

Regarding B11, the Kd was 5.7 nM.

Regarding B12, the dissociation constant (Kd) was 5.4 nM.

On to B13, for which the Kd is 5.8 nM.

As to B14, the Kd amounted to 5.3 nM.

B15: the equilibrium dissociation constant (Kd) is 5.7 nM.

In turn, B16 returned a dissociation constant Kd of 5.7 nM.

In the case of B17, the Kd is 5 nM.

Regarding B18, the Kd stood at 5.8 nM.

As to B19, the dissociation constant (Kd) amounted to 5.8 nM.

The molecule B20 had a Kd of 5 nM.

With B21, the dissociation constant (Kd) stood at 5.6 nM.

For B22, the Kd is 5.6 nM.

Molecule B23 displayed an equilibrium dissociation constant (Kd) of 5.7 nM.

B24 returned a Kd of 5.4 nM.

In turn, B25 displayed a dissociation constant Kd of 5.3 nM.

Consider B26, for which the dissociation constant Kd is 5.3 nM.

As for B27, the Kd was determined as 5.2 nM.

In the case of B28, the Kd was found to be 5.8 nM.

With B29, the Kd amounted to 5.2 nM.

B30 yielded a Kd of 5.9 nM.
